pKd: −log10 of the molar value.

Data on two substances can be found in paper PMC13083842.

This assay deals with interleukin-6 (IL-6) (human) (UniProt P05231). Nature of the assay: SPR; IL-6 amine-coupled on a CM5 chip (Biacore T200); analytes in multi-cycle kinetics, 0.39 to 100 nM, 30 µL/min, 180 s association, 1200 s dissociation, HBS-N + 10 mM CaCl2; global fit, 1:1 model; where koff was below the detection limit KD was estimated from kon and the theoretical maximum koff.
Sequence of interleukin-6 (IL-6) (human) (P05231 30-212): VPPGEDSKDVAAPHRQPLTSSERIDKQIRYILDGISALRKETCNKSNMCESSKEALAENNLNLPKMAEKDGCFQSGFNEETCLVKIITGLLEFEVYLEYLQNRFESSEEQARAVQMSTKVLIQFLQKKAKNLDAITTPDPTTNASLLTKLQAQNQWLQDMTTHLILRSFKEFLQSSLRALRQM

What is called pKd is −log10 of the Kd, conventionally taken in molar units. In the case of “sIL-6R-TGN 1:5 (from UniProt P08887 20-355) (receptor)”, the pKd was 6.37.
As usually defined, the koff is a measure of how fast the partners let go of each other. As usually defined, the kon is the second-order rate constant of association. Consider “soluble IL-6 receptor (sIL-6R) (from UniProt P08887 20-355)”, for which the pKd is 6.88, the koff was 0.035 s⁻¹ and the kon was 248000 M⁻¹ s⁻¹.
